From patent publication US20160368980A1, “INHIBITION OF GRANULOCYTE COLONY STIMULATING FACTOR IN THE TREATMENT OF CANCER” (STC.UNM, priority 2014, published 2016)

B1: G-CSF: recombinant G-CSF (eBioscience), pro-inflammatory cytokine (protein, UniProt P09920 31-208, looked up)
Granulocyte …: VPLVTVSALPPSLPLPRSFLLKSLEQVRKIQASGSVLLEQLCATYKLCHPEELVLLGHSLGIPKASLSGCSSQALQQTQCLSQLHSGLCLYQGLLQALSGISPALAPTLDLLQLDVANFATTIWQQMENLGVAPTVQPTQSAMPAFTSAFQRRAGGVLAISYLQGFLETARLALHHLA

What was measured:
Type in all cases: cell-based, human
MKN-45 and Caco-2 cells [1] = experiment: Aldefluor / CD44 staining of stem-like population by flow cytometry; conditions: for effect on G-CSF-induced stem marker expressing cell expansion (aldehyde dehydrogenase high, CD44): treatment with ERK1/2 or RSK inhibitor before G-CSF
Description: (§1) Flow Cytometry: Single-and multi-color immunostaining was performed according to standard surface and intracellular FACS staining Biolegend protocols (Biolegend, San Diego, Calif.). Anti-Ep-cam Alexa-Fluor 488 (Biolegend 9c4) was used for identification of epithelial cells. The purity of MF was analyzed by staining for CD90-PE (Biolegend Thyl) and α-smooth actin-FITC (R&D Systems 1C14206) for flow cytometry compared to isotype controls. Anti-G-CSFR-PE (clone 1 mm 741 Biolegend) and G-CSF-FITC (clone 85FSCSF eBioscience) were used for the analysis of G-CSFR surface expression and intracellular G-CSF after 4 hour exposure to Brefeldin A compared to isotype controls. Anti-proliferating cell nuclear antigen (PCNA) (clone PCNA01, Biolegend) was used as a proliferation marker. Cancer stem-like populations in carcinoma cell lines were examined by staining with Aldefluor (Stem Cell Technologies, Vancouver, BC) and anti-CD44-APC (Biolegend clone BJ18) using the manufacturer's Aldefluor staining protocol compared to isotype control. All samples were analyzed on a Guava easyCyte 8HT flow cytometer (Millipore, Bellerica, Md.), and analyzed using FCS Express software (DeNovo Software, Los Angeles, Calif.).
Therefore, assessment of MKN-45 and Caco-2 cells for a similar population was undertaken. […] Cells were also stained with CD44, since in gastric and colon cancers CD44 has also been shown on cells with stem-like features (Huang et al., 2009; Katsuno et al., 2012; Su et al., 2011b; Takaishi et al., 2009; Wakamatsu et al., 2012). To examine Aldefluor staining, cells were gated on the CD44 positive population. Then, another gate was set using the diethylaminobenzaldehyde (DEAB) inhibitor of aldehyde dehydrogenase as a negative control (FIG. 5A). […] G-CSF treatment expanded this population from 6% to 16% of the cell population (FIGS. 5C). Further, 48 hour treatment of MKN-45 and Caco-2 cells with 10 ng/ml of G-CSF led to an approximately 10% increase in the stem-like Aldefluor^highCD44^+population (FIG. 5D) with both cell types.
In parallel, ERK1/2 and RSK inhibition were also examined for effects on stem-like populations.

[2] = system: MKN-45 and Caco-2 carcinoma cells; experiment: G-CSF induced proliferation (CyQuant) with ERK1/2 or RSK inhibitors; conditions: 10 μM inhibitor, 30 min before recombinant G-CSF
Description: Proliferation: MKN-45, AGS, Caco-2 and DLD1 cells (2500 per well) were added to wells of a 96 well plate and incubated with 5-25 ng/ml of recombinant G-CSF (eBioscience) or conditioned media from MF for 48 hours. Conditioned media included a mixture of 50% media from cultured myofibroblasts and 50% fresh media for nutrients. Media from MF was taken when cells were 80% or greater confluent before passage (from approximately 1×10^6 cells). Proliferation was measured using CyQuant dye for DNA content (Life Technologies). […] Samples were read on a Tecan fluorescent plate reader (Mannedorf, Switzerland).
However, most of the studies have been performed in myeloid cells or neutrophils. Thus, we sought to examine G-CSFR signaling in MKN-45 and Caco-2 cells. […] Cells were lysed and protein levels normalized. […] A 5-fold increase in phosphorylation was found in MKN-45 and a 10-fold increase in phosphorylation was found in Caco-2 cells (FIGS. 6A and B). […] ERK1/2 or RSK inhibitors were added to some wells of cells before addition of G-CSF, and proliferation examined by CyQuant proliferation assay for DNA content.

[3] = system: ERK1/2 and RSK1 phosphorylation in MKN-45 cells; experiment: Luminex signaling bead array, ERK1/2 and RSK1 phosphorylation, MKN-45; conditions: recombinant G-CSF 10 ng/ml
Description: (§2) Luminex Arrays: G-CSF levels were measured in cell culture supernatants by singleplex fluorescent bead based array (Life Technologies) according to manufacturer's instructions. ERK1/2 and RSK phosphorylation were measured by Milliplex MAPmates phospho-ERK1/2 and RSK arrays (EMD Millipore, Billerica Mass.) according to the manufacturer protocol. All samples were analyzed on a Luminex 200 machine.
(§3) Some studies have shown that G-CSFR signaling induces signaling pathways that lead to cell proliferation (Kamezaki et aL, 2005; Wang et al., 2008). However, most of the studies have been performed in myeloid cells or neutrophils. Thus, we sought to examine G-CSFR signaling in MKN-45 and Caco-2 cells. Cells were pre-incubated with serum free media for 2 hours before treatments and recombinant G-CSF (10 ng/ml) was added to wells in 15 min intervals. Cells were lysed and protein levels normalized. […] A 5-fold increase in phosphorylation was found in MKN-45 and a 10-fold increase in phosphorylation was found in Caco-2 cells (FIGS. 6A and B). […] Since we found phosphorylation of these signaling molecules after G-CSF treatment, we further sought to characterize the role of these pathways in the increased cell proliferation resulting from G-CSF treatment observed in MKN-45 and Caco-2 carcinoma cells shown in FIG. 3. […]

[4] = system: MKN-45 and AGS gastric carcinoma cells; experiment: CyQuant proliferation assay for DNA content, gastric carcinoma cells; conditions: recombinant G-CSF 5-25 ng/ml, after 4 days, dose dependent
Description: (§4) Proliferation: MKN-45, AGS, Caco-2 and DLD1 cells (2500 per well) were added to wells of a 96 well plate and incubated with 5-25 ng/ml of recombinant G-CSF (eBioscience) or conditioned media from MF for 48 hours. Conditioned media included a mixture of 50% media from cultured myofibroblasts and 50% fresh media for nutrients. Media from MF was taken when cells were 80% or greater confluent before passage (from approximately 1×10^6 cells). Proliferation was measured using CyQuant dye for DNA content (Life Technologies). Other samples were incubated with 10 μM ERK activation inhibitor peptide 1 or RSK inhibitor SL0101 (EMD Millipore) for 30 min before addition of recombinant G-CSF. Samples were read on a Tecan fluorescent plate reader (Mannedorf, Switzerland).
(§5) MKN-45 and AGS gastric carcinoma cells and Caco-2 and DLD1 colon carcinoma cells were incubated with increasing doses of recombinant G-CSF (5-25 ng/ml), which were chosen based on reports of serum concentrations in patients (Morstyn et al., 1989). After 4 days (approximately 2 doubling times), proliferation was measured using the CyQuant fluorescent proliferation assay for DNA content. G-CSF treated cells were compared to untreated control cells. […] To further confirm G-CSF induction of cell proliferation, G-CSF treated cells were stained intracellularly for proliferating cell nuclear antigen (PCNA). […]

MKN-45 and Caco-2 cells [5] = experiment: Fluoroblok migration assay (8 micron pores, CFSE-labeled cells); conditions: 10 ng/ml G-CSF in bottom wells, 4 hours
Description: Migration: MKN-45 and Caco-2 cells were stained with carboxyfluorein succinimidyl ester (CFSE) (Life Technologies) and added to the top of Fluoroblok 96 well plates with […]. Serum free media, media with 10% FBS, recombinant G-CSF, or MF supernatants were added to the bottom of the wells. G-CSF neutralizing antibodies (1 μg/ml) were added to some cultures. The fluorescence of migrated cells was measured after 4 hours of incubation at 37° C. on a Tecan plate reader.
Given the ability of G-CSF to mobilize bone marrow derived hematopoietic cells during systemic administration (Held and Gundert-Remy, 2010), we assessed whether it could increase the migratory ability, and therefore the malignant potential, of gastric and colon cancer cells. MKN-45 and Caco-2 were serum starved overnight, fluorescently labeled with CFSE, and plated on FluorBlok™ plates with 8 micron pores and serum free media in the top of the wells. The bottom wells were filled with serum free media, serum free media containing 10 ng/ml of G-CSF or serum containing media (positive control). […] Both cell types migrated through the pores toward serum as a positive control, and at even higher rates toward G-CSF. […]

[6] = system: gastric and colon carcinoma cells; experiment: Intracellular PCNA staining by flow cytometry; conditions: G-CSF treated cells, both cell types
Description: as §1, with “Cancer stem-like populations in carcinoma cell lines were examined by staining with Aldefluor (Stem Cell Technologies, Vancouver, BC) and anti-CD44-APC (Biolegend clone BJ18) using the manufacturer's Aldefluor staining protocol compared to isotype control.” left out
MKN-45 and AGS gastric carcinoma cells and Caco-2 and DLD1 colon carcinoma cells were incubated with increasing doses of recombinant G-CSF (5-25 ng/ml), which were chosen based on reports of serum concentrations in patients (Morstyn et al., 1989). After 4 days (approximately 2 doubling times), proliferation was measured using the CyQuant fluorescent proliferation assay for DNA content. […]

[7] = system: ERK1/2 and RSK1 phosphorylation in Caco-2 cells; experiment: Luminex signaling bead array, ERK1/2 and RSK1 phosphorylation, Caco-2; conditions: recombinant G-CSF 10 ng/ml
Description: as §2, §3

[8] = system: Caco-2 and DLD1 colon carcinoma cells; experiment: CyQuant proliferation assay for DNA content, colon carcinoma cells; conditions: recombinant G-CSF 5-25 ng/ml, after 4 days, Caco-2 and DLD1, dose dependent
Description: as §4, §5

Molecule | effect on G-CSF-induced stem marker expressing cell expansion (aldehyde dehydrogenase high, CD44) (MKN-45 and Caco-2 cells [1]) | effect on G-CSF induced proliferation [2] | increase in ERK1/2 and RSK1 phosphorylation [3] [fold] | incubation time of peak ERK1/2 and RSK1 phosphorylation [3] [min] | increase in proliferation compared to untreated cells [4] [fold] | increase in the stem-like Aldefluor high CD44+ population (MKN-45 and Caco-2 cells [1]; 48 hour treatment, 10 ng/ml G-CSF, MKN-45 and Caco-2 (both cell types)) | stem-like Aldefluor population, share of the cell population after G-CSF treatment (MKN-45 and Caco-2 cells [1]; MKN-45, gated on CD44 positive, untreated 6%) [%] | increased migration compared to serum containing media (MKN-45 and Caco-2 cells [5]) [fold] | increased migration compared to serum free media (MKN-45 and Caco-2 cells [5]) [fold] | increase in PCNA staining compared to untreated cells [6] | increase in ERK1/2 and RSK1 phosphorylation [7] [fold] | incubation time of peak ERK1/2 and RSK1 phosphorylation [7] [min] | increase in proliferation compared to untreated cells [8]
CC(=O)O[C@@H]1[C@@H](OC(C)=O)[C@@H](O)[C@H](Oc2c(-c3ccc(O)cc3)oc3cc(O)cc(O)c3c2=O)O[C@H]1C [RSK inhibitor, SL0101, reference compound] | completely abrogated | drastically inhibited | – | – | – | – | – | – | – | – | – | – | –
ERK activation inhibitor peptide 1 [ERK1/2 inhibitor, reference compound] | completely abrogated | drastically inhibited | – | – | – | – | – | – | – | – | – | – | –
B1 | – | – | 5 | 30 | ≤ 2.5 | approximately 10% | 16 | 1.5 | ≤ 4 | greater than 2 fold | 10 | 30 | up to 4.5 fold
